# Laboratory results: US20200308290A1 (AbbVie / Abbott, published 2020)
# Like-named read-outs stand apart in the source and are kept apart here.
# T1: human CD25 (recombinant soluble) (human, UniProt P01589 22-240)
# T1 construct: extracellular domain; bought protein; also called IL2-Rα; recombinant human IL2-Rα
# T1 sequence (looked up): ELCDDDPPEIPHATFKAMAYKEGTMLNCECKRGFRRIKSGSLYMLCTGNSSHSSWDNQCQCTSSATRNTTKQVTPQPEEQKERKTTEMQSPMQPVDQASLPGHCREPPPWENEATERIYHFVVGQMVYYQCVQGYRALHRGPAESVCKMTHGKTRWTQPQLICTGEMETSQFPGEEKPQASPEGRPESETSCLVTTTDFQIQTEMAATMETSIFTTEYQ
# T2: human CD25 (human, UniProt P01589 22-213, limits assumed)
# T2 construct: Recombinant soluble human CD25, coated on plates (ELISA) or injected over captured antibody (BIAcore); also called hCD25; IL2-R alpha
# T2 sequence (looked up): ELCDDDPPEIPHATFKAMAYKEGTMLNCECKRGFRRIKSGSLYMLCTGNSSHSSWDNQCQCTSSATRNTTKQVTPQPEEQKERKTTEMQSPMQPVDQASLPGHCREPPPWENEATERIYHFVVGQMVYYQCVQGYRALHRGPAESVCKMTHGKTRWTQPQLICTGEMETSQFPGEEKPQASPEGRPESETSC
# T3: human CD25 on cells (human, UniProt P01589 22-272)
# T3 sequence (looked up): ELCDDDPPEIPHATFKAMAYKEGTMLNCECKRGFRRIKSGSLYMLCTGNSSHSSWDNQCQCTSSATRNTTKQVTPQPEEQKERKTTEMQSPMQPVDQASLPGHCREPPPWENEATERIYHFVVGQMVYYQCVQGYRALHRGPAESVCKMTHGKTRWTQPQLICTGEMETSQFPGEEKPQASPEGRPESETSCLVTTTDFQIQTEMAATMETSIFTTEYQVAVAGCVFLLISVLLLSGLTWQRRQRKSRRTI
# B1: QRKFH (antibody, IgG1, name in Kabat numbering, V domains shown)
# VH: QVQLVQSGAEVKKPGSSVKVSCKASGYTFTSYRMHWVRQAPGQGLEWIGYIQPRKGFTHYNQKFKDKATITADESTNTAYMELSSLRSEDTAVYYCARGGGVFDYWGQGTLVTVSS
# VL: DIQMTQSPSTLSASVGDRVTITCSASSSISYMHWYQQKPGKAPKLLIYTTSNLASGVPARFSGSGSGTEFTLTISSLQPDDFATYYCHQRSTYPLTFGQGTKVEVK
# notes: soluble IgG1 from the VH library; Kabat numbers; also called VH variant QRKFH
# B2: Variant C39 (antibody, V domains shown)
# VH: QVQLVQSGAEVKKPGSSVKVSCKASGYTFTSYRMHWVRQAPGQGLEWMGYISPRKGYTEYNQKFKDKATITADESTNTAYMELSSLRSEDTAVYYCARGGGVFDYWGQGTLVTVSS
# VL: DIQMTQSPSTLSASVGDRVTITCSASSKISYMHWYQQKPGKAPKLLIYTTSDLASGVPARFSGSGSGTEFTLTISSLQPDDFATYYCHQRSTYPLTFGQGTKVEVK
# B3: Variant C19 (antibody, name in Kabat numbering, V domains shown)
# VH: QVQLVQSGAEVKKPGSSVKVSCKASGYTFTSYRMHWVRQAPGQGLEWIGYISPRKGYTEYNQKFKDKATITADESTNTAYMELSSLRSEDTAVYYCARGGGVFDYWGQGTLVTVSS
# VL: DIQMTQSPSTLSASVGDRVTITCSASSSISYMHWYQQKPGKAPKLLIYTTSELASGVPARFSGSGSGTEFTLTISSLQPDDFATYYCHQRSTYPLTFGQGTKVEVK
# notes: Isotype as printed: G1 fa; also called SRK-SE
# B4: Variant C27 (antibody, name in Kabat numbering, V domains shown)
# VH: QVQLVQSGAEVKKPGSSVKVSCKASGYTFTSYRMHWVRQAPGQGLEWMGYINPSSGYTEYNQKFKDKATITADESTNTAYMELSSLRSEDTAVYYCARGGGVFDYWGQGTLVTVSS
# VL: DIQMTQSPSTLSASVGDRVTITCSASSSISYMHWYQQKPGKAPKLLIYTTSNLASGVPARFSGSGSGTEFTLTISSLQPDDFATYYCHQRSTYPLTFGQGTKVEVK
# notes: Isotype as printed: G2M3.QL
# B5: Variant C41 (antibody, name in Kabat numbering, V domains shown)
# VH: QVQLVQSGAEVKKPGSSVKVSCKASGYTFTSYRMHWVRQAPGQGLEWMGYISPRSGYTEYNQKFKDKATITADESTNTAYMELSSLRSEDTAVYYCARGGGVFDYWGQGTLVTVSS
# VL: DIQMTQSPSTLSASVGDRVTITCSASSSISYMHWYQQKPGKAPKLLIYTTSNLASGVPARFSGSGSGTEFTLTISSLQPDDFATYYCHQRSTYPLTFGQGTKVEVK
# notes: Isotype as printed: G2M3.QL
# B6: RKGFE (antibody, IgG1, name in Kabat numbering, V domains shown)
# VH: QVQLVQSGAEVKKPGSSVKVSCKASGYTFTSYRMHWVRQAPGQGLEWIGYIRPKGGFTEYNQKFKDKATITADESTNTAYMELSSLRSEDTAVYYCARGGGVFDYWGQGTLVTVSS
# VL: DIQMTQSPSTLSASVGDRVTITCSASSSISYMHWYQQKPGKAPKLLIYTTSNLASGVPARFSGSGSGTEFTLTISSLQPDDFATYYCHQRSTYPLTFGQGTKVEVK
# notes: soluble IgG1 from the VH library; Kabat numbers; also called VH variant RKGFE
# B7: Variant C34 (antibody, V domains shown)
# VH: QVQLVQSGAEVKKPGSSVKVSCKASGYTFTSYRMHWVRQAPGQGLEWMGYIKPSRGYTEYNQKFKDKATITADESTNTAYMELSSLRSEDTAVYYCARGGGVFDYWGQGTLVTVSS
# VL: DIQMTQSPSTLSASVGDRVTITCSASSKISYMHWYQQKPGKAPKLLIYTTSDLASGVPARFSGSGSGTEFTLTISSLQPDDFATYYCHQRSTYPLTFGQGTKVEVK
# notes: Isotype as printed: G2M3.QL
# B8: RKGFN (antibody, IgG1, name in Kabat numbering, V domains shown)
# VH: QVQLVQSGAEVKKPGSSVKVSCKASGYTFTSYRMHWVRQAPGQGLEWIGYIRPKGGFTNYNQKFKDKATITADESTNTAYMELSSLRSEDTAVYYCARGGGVFDYWGQGTLVTVSS
# VL: DIQMTQSPSTLSASVGDRVTITCSASSSISYMHWYQQKPGKAPKLLIYTTSNLASGVPARFSGSGSGTEFTLTISSLQPDDFATYYCHQRSTYPLTFGQGTKVEVK
# notes: soluble IgG1 from the VH library; Kabat numbers; also called VH variant RKGFN
# B9: Variant C26 (antibody, name in Kabat numbering, V domains shown)
# VH: QVQLVQSGAEVKKPGSSVKVSCKASGYTFTSYRMHWVRQAPGQGLEWIGYIKPSRGYTEYNQKFKDKATITADKSTNTAYMELSSLRSEDTAVYYCARGGGVFDYWGQGTLVTVSS
# VL: DIQMTQSPSTLSASVGDRVTITCSASSSISYMHWYQQKPGKAPKLLIYTTSELASGVPARFSGSGSGTEFTLTISSLQPDDFATYYCHQRSTYPLTFGQGTKVEVK
# notes: Isotype as printed: G1 fa; E to K read as E73K
# B10: SNKYL (antibody, IgG1, name in Kabat numbering, V domains shown)
# VH: QVQLVQSGAEVKKPGSSVKVSCKASGYTFTSYRMHWVRQAPGQGLEWIGYISPNKGYTLYNQKFKDKATITADESTNTAYMELSSLRSEDTAVYYCARGGGVFDYWGQGTLVTVSS
# VL: DIQMTQSPSTLSASVGDRVTITCSASSSISYMHWYQQKPGKAPKLLIYTTSNLASGVPARFSGSGSGTEFTLTISSLQPDDFATYYCHQRSTYPLTFGQGTKVEVK
# notes: soluble IgG1 from the VH library; Kabat numbers; also called VH variant SNKYL
# B11: Variant C29 (antibody, name in Kabat numbering, V domains shown)
# VH: QVQLVQSGAEVKKPGSSVKVSCKASGYTFTSYRMHWVRQAPGQGLEWMGYINPSSGYTEYNQKFKDKATITADESTNTAYMELSSLRSEDTAVYYCARGGGVFDYWGQGTLVTVSS
# VL: DIQMTQSPSTLSASVGDRVTITCSASSSISYMHWYQQKPGKAPKLLIYTTSELASGVPARFSGSGSGTEFTLTISSLQPDDFATYYCHQRSTYPLTFGQGTKVEVK
# notes: Isotype as printed: G2M3.QL
# B12: RRGFE (antibody, IgG1, name in Kabat numbering, V domains shown)
# VH: QVQLVQSGAEVKKPGSSVKVSCKASGYTFTSYRMHWVRQAPGQGLEWIGYIRPRGGFTEYNQKFKDKATITADESTNTAYMELSSLRSEDTAVYYCARGGGVFDYWGQGTLVTVSS
# VL: DIQMTQSPSTLSASVGDRVTITCSASSSISYMHWYQQKPGKAPKLLIYTTSNLASGVPARFSGSGSGTEFTLTISSLQPDDFATYYCHQRSTYPLTFGQGTKVEVK
# notes: soluble IgG1 from the VH library; Kabat numbers; also called VH variant RRGFE
# B13: Variant C28 (antibody, V domains shown)
# VH: QVQLVQSGAEVKKPGSSVKVSCKASGYTFTSYRMHWVRQAPGQGLEWMGYINPSSGYTEYNQKFKDKATITADESTNTAYMELSSLRSEDTAVYYCARGGGVFDYWGQGTLVTVSS
# VL: DIQMTQSPSTLSASVGDRVTITCSASSKISYMHWYQQKPGKAPKLLIYTTSDLASGVPARFSGSGSGTEFTLTISSLQPDDFATYYCHQRSTYPLTFGQGTKVEVK
# notes: Isotype as printed: G2M3.QL
# B14: Variant C37 (antibody, name in Kabat numbering, V domains shown)
# VH: QVQLVQSGAEVKKPGSSVKVSCKASGYTFTSYRMHWVRQAPGQGLEWMGYIKPSSGYTEYNQKFKDKATITADESTNTAYMELSSLRSEDTAVYYCARGGGVFDYWGQGTLVTVSS
# VL: DIQMTQSPSTLSASVGDRVTITCSASSSISYMHWYQQKPGKAPKLLIYTTSELASGVPARFSGSGSGTEFTLTISSLQPDDFATYYCHQRSTYPLTFGQGTKVEVK
# notes: Isotype as printed: G2M3.QL
# B15: Variant C16 (antibody, name in Kabat numbering, V domains shown)
# VH: QVQLVQSGAEVKKPGSSVKVSCKASGYTFTSYRMHWVRQAPGQGLEWIGYIRPNRGYTEYNQKFKDKATITADESTNTAYMELSSLRSEDTAVYYCARGGGVFDYWGQGTLVTVSS
# VL: DIQMTQSPSTLSASVGDRVTITCSASSSISYMHWYQQKPGKAPKLLIYTTSELASGVPARFSGSGSGTEFTLTISSLQPDDFATYYCHQRSTYPLTFGQGTKVEVK
# notes: Isotype as printed: G1 fa; also called RNR-SE
# B16: RRKFE (antibody, IgG1, name in Kabat numbering, V domains shown)
# VH: QVQLVQSGAEVKKPGSSVKVSCKASGYTFTSYRMHWVRQAPGQGLEWIGYIRPRKGFTEYNQKFKDKATITADESTNTAYMELSSLRSEDTAVYYCARGGGVFDYWGQGTLVTVSS
# VL: DIQMTQSPSTLSASVGDRVTITCSASSSISYMHWYQQKPGKAPKLLIYTTSNLASGVPARFSGSGSGTEFTLTISSLQPDDFATYYCHQRSTYPLTFGQGTKVEVK
# notes: soluble IgG1 from the VH library; Kabat numbers; also called VH variant RRKFE
# B17: Variant C43 (antibody, name in Kabat numbering, V domains shown)
# VH: QVQLVQSGAEVKKPGSSVKVSCKASGYTFTSYRMHWVRQAPGQGLEWMGYISPRSGYTEYNQKFKDKATITADESTNTAYMELSSLRSEDTAVYYCARGGGVFDYWGQGTLVTVSS
# VL: DIQMTQSPSTLSASVGDRVTITCSASSSISYMHWYQQKPGKAPKLLIYTTSELASGVPARFSGSGSGTEFTLTISSLQPDDFATYYCHQRSTYPLTFGQGTKVEVK
# notes: Isotype as printed: G2M3.QL
# Tests used:
# [1] = target: T1, human CD25 (recombinant soluble); experiment: competitive ELISA with biotinylated daclizumab on CD25
# Experimental: Wells of 96-well ELISA plates (Nunc-Immuno MaxiSorp plates, Nalge Nunc, Rochester, N.Y.) were coated with 100 μL of 0.2 μg/mL CD25 (Pepro Tech Inc., Rocky Hill, N.J.) in 0.2 M sodium carbonate-bicarbonate buffer (pH 9.4, Pierce, Rockford, Ill.) overnight at 4° C. After washing with Wash Buffer, wells were blocked with 200 μL of Superblock Blocking Buffer (Pierce, Rockford, Ill.) for 30 min and then washed. […] The plate was then washed with washing buffer three times. After washing, 100 μL of 1 μg/mL HRP-conjugated Streptavidin (Pierce) diluted in ELISA buffer was added to each well. After 30 minutes of incubation at room temperature, plates were washed and bound antibodies were detected by addition of ABTS substrate (Kirkegaard & Perry Laboratories, Gaithersburg, Md.). […] PRISM (GraphPad, San Diego) and reported as IC₅₀ wild type/IC₅₀ mutant (fold improvement over wild type control).
# cynomolgous monkey CD25 [2] = target: T4, cynomolgous monkey CD25 (cynomolgous monkey); experiment: SPR (BIAcore), cynomolgous CD25
# T4 construct: also called cmCD25; cm
# cynomolgous monkey CD25 [3] = target: T4, cynomolgous monkey CD25; experiment: SPR (BIAcore), cynomolgous CD25; remark: listed apart in the source
# human CD25 [4] = target: T2, human CD25; experiment: SPR (BIAcore)
# human CD25 on cells = target: T3, human CD25 on cells; experiment: cell-based or functional assay
# human CD25 [5] = target: T2, human CD25; experiment: competition ELISA vs biotinylated daclizumab, fold over wild type
# human CD25 [6] = target: T2, human CD25; experiment: SPR (BIAcore); remark: listed apart in the source
binder,measurement,setting,value
B1,fold affinity over the parental antibody,[1],~10 fold
B2,Kd,cynomolgous monkey CD25 [2],0.031 nM
same,Kd,cynomolgous monkey CD25 [3],0.031 nM
B3,Kd,human CD25 [4],0.016 nM
B4,Kd,cynomolgous monkey CD25 [2],0.263 nM
same,Kd,cynomolgous monkey CD25 [3],0.263 nM
B5,Kit225 (fold improvement in inhibition of IL2-induced Kit225 proliferation),human CD25 on cells,2.5 fold
same,ELISA fold improvement,human CD25 [5],6.1 fold
B6,fold affinity over the parental antibody,[1],~10 fold
B7,Kd,human CD25 [6],0.021 nM
same,Kit225 (fold improvement in inhibition of IL2-induced Kit225 proliferation),human CD25 on cells,3.1 fold
same,PBMC (fold improvement in inhibition of IL2-induced PHA blast proliferation),human CD25 on cells,6.4 fold
same,Kd,cynomolgous monkey CD25 [2],0.088 nM
same,ELISA fold improvement,human CD25 [5],7.8 fold
B8,fold affinity over the parental antibody,[1],~10 fold
B9,Kd,human CD25 [4],0.121 nM
B10,fold affinity over the parental antibody,[1],~10 fold
B11,Kd,cynomolgous monkey CD25 [2],0.098 nM
B12,fold affinity over the parental antibody,[1],~10 fold
B13,Kd,human CD25 [6],0.054 nM
same,Kit225 (fold improvement in inhibition of IL2-induced Kit225 proliferation),human CD25 on cells,2.8 fold
same,PBMC (fold improvement in inhibition of IL2-induced PHA blast proliferation),human CD25 on cells,5.8 fold
same,Kd,cynomolgous monkey CD25 [2],0.049 nM
same,ELISA fold improvement,human CD25 [5],1.6 fold
B14,ELISA fold improvement,human CD25 [5],4.1 fold
B15,Kd,human CD25 [4],0.022 nM
B16,fold affinity over the parental antibody,[1],~10 fold
B17,ELISA fold improvement,human CD25 [5],4.2 fold
